B1: COX4I1 (parent)
chain: FDKEWVAKQTKRMLDMKVNPIQGL

Variants of: B1
Assay: protein stability index of a GFP-peptide fusion (GPS, HEK-293T) (PSI 1-6); higher = more stable
Conditions: c terminus: a fixed tail appended
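Note: lentivirally expressed fusions sorted by FACS into six bins by GFP to DsRed ratio, PSI derived from sequencing read proportions per bin multiplied by bin number.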

**Q.** For FDKEWVQKQTKRMLDMKVNPIQGL [A7Q], which protein stability index is on record?
**A.** 1.84

**Q.** Which protein stability index does the source give for FDKEWVRKQTKRMLDMKVNPIQGL [A7R] here?
**A.** 2.45

**Q.** For FDKEWVSKQTKRMLDMKVNPIQGL [A7S], which protein stability index is on record?
**A.** 1.11

**Q.** For FDKEWVTKQTKRMLDMKVNPIQGL [A7T], which protein stability index is on record?
**A.** 1.76

**Q.** For FDKEWVVKQTKRMLDMKVNPIQGL [A7V], which protein stability index is on record?
**A.** 1.18

**Q.** With FDKEWVWKQTKRMLDMKVNPIQGL [A7W] as the variant, how does the protein stability index read?
**A.** 1.77

**Q.** With FDKEWVYKQTKRMLDMKVNPIQGL [A7Y] as the variant, how does the protein stability index read?
**A.** 1.71

**Q.** With FDKEWVAAQTKRMLDMKVNPIQGL [K8A] as the variant, how does the protein stability index read?
**A.** 1.06

**Q.** For FDKEWVACQTKRMLDMKVNPIQGL [K8C], which protein stability index is on record?
**A.** 2.68

**Q.** Which protein stability index does the source give for FDKEWVADQTKRMLDMKVNPIQGL [K8D] here?
**A.** 2.29

**Q.** Which protein stability index does the source give for FDKEWVAEQTKRMLDMKVNPIQGL [K8E] here?
**A.** 2.35

**Q.** With FDKEWVAFQTKRMLDMKVNPIQGL [K8F] as the variant, how does the protein stability index read?
**A.** 1.99

**Q.** Which protein stability index does the source give for FDKEWVAGQTKRMLDMKVNPIQGL [K8G] here?
**A.** 1.87

**Q.** For FDKEWVAHQTKRMLDMKVNPIQGL [K8H], which protein stability index is on record?
**A.** 1.77

**Q.** Which protein stability index does the source give for FDKEWVALQTKRMLDMKVNPIQGL [K8L] here?
**A.** 2.31

**Q.** For FDKEWVAMQTKRMLDMKVNPIQGL [K8M], which protein stability index is on record?
**A.** 1.88

**Q.** With FDKEWVANQTKRMLDMKVNPIQGL [K8N] as the variant, how does the protein stability index read?
**A.** 1.38

**Q.** Which protein stability index does the source give for FDKEWVAPQTKRMLDMKVNPIQGL [K8P] here?
**A.** 2.33

**Q.** For FDKEWVAQQTKRMLDMKVNPIQGL [K8Q], which protein stability index is on record?
**A.** 1.18

**Q.** For FDKEWVARQTKRMLDMKVNPIQGL [K8R], which protein stability index is on record?
**A.** 2.42

**Q.** For FDKEWVASQTKRMLDMKVNPIQGL [K8S], which protein stability index is on record?
**A.** 1.75

**Q.** With FDKEWVATQTKRMLDMKVNPIQGL [K8T] as the variant, how does the protein stability index read?
**A.** 1.48

**Q.** Which protein stability index does the source give for FDKEWVAVQTKRMLDMKVNPIQGL [K8V] here?
**A.** 1.84

**Q.** With FDKEWVAWQTKRMLDMKVNPIQGL [K8W] as the variant, how does the protein stability index read?
**A.** 3.04

**Q.** For FDKEWVAYQTKRMLDMKVNPIQGL [K8Y], which protein stability index is on record?
**A.** 2.59

**Q.** Which protein stability index does the source give for FDKEWVAKATKRMLDMKVNPIQGL [Q9A] here?
**A.** 3.55

**Q.** With FDKEWVAKCTKRMLDMKVNPIQGL [Q9C] as the variant, how does the protein stability index read?
**A.** 3.23

**Q.** Which protein stability index does the source give for FDKEWVAKDTKRMLDMKVNPIQGL [Q9D] here?
**A.** 2.2

**Q.** Which protein stability index does the source give for FDKEWVAKETKRMLDMKVNPIQGL [Q9E] here?
**A.** 2.26

**Q.** For FDKEWVAKFTKRMLDMKVNPIQGL [Q9F], which protein stability index is on record?
**A.** 1.54

**Q.** With FDKEWVAKGTKRMLDMKVNPIQGL [Q9G] as the variant, how does the protein stability index read?
**A.** 2.65

**Q.** For FDKEWVAKHTKRMLDMKVNPIQGL [Q9H], which protein stability index is on record?
**A.** 1.77

**Q.** With FDKEWVAKITKRMLDMKVNPIQGL [Q9I] as the variant, how does the protein stability index read?
**A.** 1.6

**Q.** With FDKEWVAKKTKRMLDMKVNPIQGL [Q9K] as the variant, how does the protein stability index read?
**A.** 2.62

**Q.** For FDKEWVAKLTKRMLDMKVNPIQGL [Q9L], which protein stability index is on record?
**A.** 2.08

**Q.** For FDKEWVAKMTKRMLDMKVNPIQGL [Q9M], which protein stability index is on record?
**A.** 2.54

**Q.** For FDKEWVAKNTKRMLDMKVNPIQGL [Q9N], which protein stability index is on record?
**A.** 1.42

**Q.** With FDKEWVAKPTKRMLDMKVNPIQGL [Q9P] as the variant, how does the protein stability index read?
**A.** 2

**Q.** For FDKEWVAKRTKRMLDMKVNPIQGL [Q9R], which protein stability index is on record?
**A.** 1.87

**Q.** For FDKEWVAKSTKRMLDMKVNPIQGL [Q9S], which protein stability index is on record?
**A.** 2.46

**Q.** With FDKEWVAKTTKRMLDMKVNPIQGL [Q9T] as the variant, how does the protein stability index read?
**A.** 2.87

**Q.** With FDKEWVAKVTKRMLDMKVNPIQGL [Q9V] as the variant, how does the protein stability index read?
**A.** 1.46

**Q.** With FDKEWVAKWTKRMLDMKVNPIQGL [Q9W] as the variant, how does the protein stability index read?
**A.** 1.8

**Q.** With FDKEWVAKYTKRMLDMKVNPIQGL [Q9Y] as the variant, how does the protein stability index read?
**A.** 2.14

**Q.** For FDKEWVAKQAKRMLDMKVNPIQGL [T10A], which protein stability index is on record?
**A.** 1.41

**Q.** Which protein stability index does the source give for FDKEWVAKQCKRMLDMKVNPIQGL [T10C] here?
**A.** 1.7

**Q.** Which protein stability index does the source give for FDKEWVAKQDKRMLDMKVNPIQGL [T10D] here?
**A.** 1.82

**Q.** Which protein stability index does the source give for FDKEWVAKQEKRMLDMKVNPIQGL [T10E] here?
**A.** 2.21

**Q.** Which protein stability index does the source give for FDKEWVAKQFKRMLDMKVNPIQGL [T10F] here?
**A.** 1.82

**Q.** For FDKEWVAKQGKRMLDMKVNPIQGL [T10G], which protein stability index is on record?
**A.** 2.67

**Q.** Which protein stability index does the source give for FDKEWVAKQHKRMLDMKVNPIQGL [T10H] here?
**A.** 1.69

**Q.** With FDKEWVAKQIKRMLDMKVNPIQGL [T10I] as the variant, how does the protein stability index read?
**A.** 2.82

**Q.** Which protein stability index does the source give for FDKEWVAKQKKRMLDMKVNPIQGL [T10K] here?
**A.** 1.78

**Q.** For FDKEWVAKQLKRMLDMKVNPIQGL [T10L], which protein stability index is on record?
**A.** 1.24

**Q.** Which protein stability index does the source give for FDKEWVAKQMKRMLDMKVNPIQGL [T10M] here?
**A.** 1.91

**Q.** Which protein stability index does the source give for FDKEWVAKQNKRMLDMKVNPIQGL [T10N] here?
**A.** 1.73

**Q.** Which protein stability index does the source give for FDKEWVAKQPKRMLDMKVNPIQGL [T10P] here?
**A.** 2

**Q.** For FDKEWVAKQQKRMLDMKVNPIQGL [T10Q], which protein stability index is on record?
**A.** 1.84

**Q.** For FDKEWVAKQRKRMLDMKVNPIQGL [T10R], which protein stability index is on record?
**A.** 2.35

**Q.** For FDKEWVAKQSKRMLDMKVNPIQGL [T10S], which protein stability index is on record?
**A.** 1.08

**Q.** Which protein stability index does the source give for FDKEWVAKQVKRMLDMKVNPIQGL [T10V] here?
**A.** 1.49

**Q.** For FDKEWVAKQWKRMLDMKVNPIQGL [T10W], which protein stability index is on record?
**A.** 1.82

**Q.** Which protein stability index does the source give for FDKEWVAKQYKRMLDMKVNPIQGL [T10Y] here?
**A.** 1.6

**Q.** For FDKEWVAKQTARMLDMKVNPIQGL [K11A], which protein stability index is on record?
**A.** 1.84

**Q.** Which protein stability index does the source give for FDKEWVAKQTCRMLDMKVNPIQGL [K11C] here?
**A.** 2.77

**Q.** Which protein stability index does the source give for FDKEWVAKQTDRMLDMKVNPIQGL [K11D] here?
**A.** 1.54

**Q.** For FDKEWVAKQTERMLDMKVNPIQGL [K11E], which protein stability index is on record?
**A.** 1.86

**Q.** For FDKEWVAKQTFRMLDMKVNPIQGL [K11F], which protein stability index is on record?
**A.** 1.97

**Q.** For FDKEWVAKQTGRMLDMKVNPIQGL [K11G], which protein stability index is on record?
**A.** 1.62

**Q.** For FDKEWVAKQTHRMLDMKVNPIQGL [K11H], which protein stability index is on record?
**A.** 1.7

**Q.** Which protein stability index does the source give for FDKEWVAKQTIRMLDMKVNPIQGL [K11I] here?
**A.** 1.8

**Q.** For FDKEWVAKQTLRMLDMKVNPIQGL [K11L], which protein stability index is on record?
**A.** 1.61

**Q.** With FDKEWVAKQTMRMLDMKVNPIQGL [K11M] as the variant, how does the protein stability index read?
**A.** 1.9

**Q.** For FDKEWVAKQTNRMLDMKVNPIQGL [K11N], which protein stability index is on record?
**A.** 1.54

**Q.** Which protein stability index does the source give for FDKEWVAKQTPRMLDMKVNPIQGL [K11P] here?
**A.** 2.32

**Q.** For FDKEWVAKQTQRMLDMKVNPIQGL [K11Q], which protein stability index is on record?
**A.** 1.79

**Q.** Which protein stability index does the source give for FDKEWVAKQTRRMLDMKVNPIQGL [K11R] here?
**A.** 1.92

**Q.** With FDKEWVAKQTSRMLDMKVNPIQGL [K11S] as the variant, how does the protein stability index read?
**A.** 2.28

**Q.** Which protein stability index does the source give for FDKEWVAKQTTRMLDMKVNPIQGL [K11T] here?
**A.** 1.92

**Q.** For FDKEWVAKQTVRMLDMKVNPIQGL [K11V], which protein stability index is on record?
**A.** 2.58

**Q.** Which protein stability index does the source give for FDKEWVAKQTWRMLDMKVNPIQGL [K11W] here?
**A.** 1.52

**Q.** For FDKEWVAKQTYRMLDMKVNPIQGL [K11Y], which protein stability index is on record?
**A.** 3.38

**Q.** With FDKEWVAKQTKAMLDMKVNPIQGL [R12A] as the variant, how does the protein stability index read?
**A.** 1.88

**Q.** Which protein stability index does the source give for FDKEWVAKQTKCMLDMKVNPIQGL [R12C] here?
**A.** 1.43

**Q.** Which protein stability index does the source give for FDKEWVAKQTKDMLDMKVNPIQGL [R12D] here?
**A.** 1.88

**Q.** With FDKEWVAKQTKEMLDMKVNPIQGL [R12E] as the variant, how does the protein stability index read?
**A.** 2.59

**Q.** With FDKEWVAKQTKFMLDMKVNPIQGL [R12F] as the variant, how does the protein stability index read?
**A.** 2.17

**Q.** With FDKEWVAKQTKGMLDMKVNPIQGL [R12G] as the variant, how does the protein stability index read?
**A.** 1.35

**Q.** For FDKEWVAKQTKHMLDMKVNPIQGL [R12H], which protein stability index is on record?
**A.** 1.97

**Q.** With FDKEWVAKQTKIMLDMKVNPIQGL [R12I] as the variant, how does the protein stability index read?
**A.** 1.96

**Q.** Which protein stability index does the source give for FDKEWVAKQTKKMLDMKVNPIQGL [R12K] here?
**A.** 1.81

**Q.** For FDKEWVAKQTKLMLDMKVNPIQGL [R12L], which protein stability index is on record?
**A.** 3.17

**Q.** With FDKEWVAKQTKMMLDMKVNPIQGL [R12M] as the variant, how does the protein stability index read?
**A.** 1.6

**Q.** For FDKEWVAKQTKNMLDMKVNPIQGL [R12N], which protein stability index is on record?
**A.** 1.36

Reference: the supplement of paper PMC10567573
